The values that follow come from the array DNA melting data of Ke et al..

A short description of this data set: melting temperature; melt of duplexes. The following applies: sodium 0.0675 M; strand 1 µM.
Take “CGACGTGCCATATGTGCTG+CAGCACATTCCGCACGTCG ((((((((...((((((((+))))))))...))))))))”: the Tm was determined as 48.1 °C. Turning to “CGACGTGCTTAATGTGCTG+CAGCACATCGTGCACGTCG ((((((((...((((((((+))))))))...))))))))”, the Tm was determined as 43.3 °C. Turning to “CGACGTGCTAAATGTGCTG+CAGCACATCGGGCACGTCG ((((((((...((((((((+))))))))...))))))))”, the Tm is 49.7 °C. As for “CGACGTGCAACATGTGCTG+CAGCACATCTTGCACGTCG ((((((((((.((((((((+)))))))).))))))))))”, the Tm was determined as 52.5 °C. “CGACGTGCCATATGTGCTG+CAGCACATGGGGCACGTCG (((((((((..((((((((+))))))))..)))))))))”: the Tm was 56.7 °C. For “CGACGTGCTATATGTGCTG+CAGCACATACGGCACGTCG ((((((((..(((((((((+)))))))))..))))))))”, the Tm amounted to 50.7 °C.

Consider “CGACGTGCCATATGTGCTG+CAGCACATGTAGCACGTCG ((((((((.(.((((((((+)))))))).).))))))))”, for which the midpoint of thermal melting (Tm) was determined as 51.3 °C. The result for “CGACGTGCCCAATGTGCTG+CAGCACATTCCGCACGTCG ((((((((..(((((((((+)))))))))..))))))))” reads 49.3 °C; that for “CGACGTGCCACATGTGCTG+CAGCACATGCAGCACGTCG ((((((((..(((((((((+)))))))))..))))))))”, 53.6 °C. Then “CGACGTGCATCATGTGCTG+CAGCACATGATGCACGTCG (((((((((((((((((((+)))))))))))))))))))”, with 64.8 °C; and “CGACGTGCAAGATGTGCTG+CAGCACATTCCGCACGTCG ((((((((...((((((((+))))))))...))))))))”, with 49.4 °C. Then “CGACGTGCGAAATGTGCTG+CAGCACATATAGCACGTCG ((((((((.(.((((((((+)))))))).).))))))))”, with 54.3 °C; and “CGACGTGCGGCATGTGCTG+CAGCACATTATGCACGTCG ((((((((...((((((((+))))))))...))))))))”, with 49 °C. For the substance “CGACGTGCGTGATGTGCTG+CAGCACATTCTGCACGTCG ((((((((...((((((((+))))))))...))))))))”, the midpoint of thermal melting (Tm) worked out at 51.8 °C. The result for “CGACGTGCTGTATGTGCTG+CAGCACATCTCGCACGTCG ((((((((...((((((((+))))))))...))))))))” reads 48.9 °C. Take “CGACGTGCCACATGTGCTG+CAGCACATTGCGCACGTCG ((((((((...((((((((+))))))))...))))))))”: the Tm came to 50.5 °C. As to “CGACGTGCAAAATGTGCTG+CAGCACATTTTGCACGTCG (((((((((((((((((((+)))))))))))))))))))”, the Tm is 62.4 °C. Then “CGACGTGCGCGATGTGCTG+CAGCACATCACGCACGTCG (((((((((.(((((((((+))))))))).)))))))))”, with 62.2 °C; and “CGACGTGCTTCATGTGCTG+CAGCACATCTTGCACGTCG ((((((((...((((((((+))))))))...))))))))”, with 48.3 °C. Consider “CGACGTGCCGGATGTGCTG+CAGCACATGGAGCACGTCG ((((((((...((((((((+))))))))...))))))))”, for which the midpoint of thermal melting (Tm) stood at 51 °C.

As for “CGACGTGCGTGATGTGCTG+CAGCACATCCAGCACGTCG ((((((((..(((((((((+)))))))))..))))))))”, the Tm came out at 55.5 °C. The result for “CGACGTGCGTGATGTGCTG+CAGCACATTTAGCACGTCG ((((((((...((((((((+))))))))...))))))))” reads 53.6 °C; that for “CGACGTGCGGGATGTGCTG+CAGCACATTCAGCACGTCG ((((((((.(.((((((((+)))))))).).))))))))”, 56.4 °C; that for “CGACGTGCTCTATGTGCTG+CAGCACATTCCGCACGTCG ((((((((...((((((((+))))))))...))))))))”, 46.7 °C.

Regarding “CGACGTGCTGTATGTGCTG+CAGCACATGTGGCACGTCG ((((((((...((((((((+))))))))...))))))))”, the Tm is 51 °C. Then “CGACGTGCCCGATGTGCTG+CAGCACATTGAGCACGTCG ((((((((.(.((((((((+)))))))).).))))))))”, with 53.6 °C; and “CGACGTGCGTGATGTGCTG+CAGCACATTATGCACGTCG ((((((((.(.((((((((+)))))))).).))))))))”, with 54.5 °C. With “CGACGTGCCTTATGTGCTG+CAGCACATGTGGCACGTCG (((((((((..((((((((+))))))))..)))))))))”, the Tm stood at 54.4 °C.

For “CGACGTGCCGCATGTGCTG+CAGCACATCTTGCACGTCG ((((((((...((((((((+))))))))...))))))))”, the melting temperature (Tm) was found to be 47.4 °C. As for “CGACGTGCATAATGTGCTG+CAGCACATCGGGCACGTCG ((((((((...((((((((+))))))))...))))))))”, the Tm turned out to be 48.2 °C. Take “CGACGTGCTCGATGTGCTG+CAGCACATACGGCACGTCG ((((((((...((((((((+))))))))...))))))))”: the Tm was found to be 50.5 °C. On to “CGACGTGCAACATGTGCTG+CAGCACATGTTGCACGTCG (((((((((((((((((((+)))))))))))))))))))”, for which the midpoint of thermal melting (Tm) amounted to 64.5 °C.

Consider “CGACGTGCGCCATGTGCTG+CAGCACATCGCGCACGTCG ((((((((((.((((((((+)))))))).))))))))))”, for which the Tm came to 58.3 °C.

In the case of “CGACGTGCATTATGTGCTG+CAGCACATTCCGCACGTCG ((((((((...((((((((+))))))))...))))))))”, the Tm is 47.5 °C. As to “CGACGTGCTACATGTGCTG+CAGCACATTGAGCACGTCG (((((((((..((((((((+))))))))..)))))))))”, the midpoint of thermal melting (Tm) came to 52.8 °C. As for “CGACGTGCTAAATGTGCTG+CAGCACATGTAGCACGTCG ((((((((((.((((((((+)))))))).))))))))))”, the Tm was 55.7 °C.

As for “CGACGTGCTGTATGTGCTG+CAGCACATTCTGCACGTCG ((((((((.(.((((((((+)))))))).).))))))))”, the Tm was found to be 52 °C. For the substance “CGACGTGCTTTATGTGCTG+CAGCACATGTCGCACGTCG ((((((((...((((((((+))))))))...))))))))”, the Tm amounted to 47.8 °C. Consider “CGACGTGCCGTATGTGCTG+CAGCACATCTCGCACGTCG ((((((((...((((((((+))))))))...))))))))”, for which the melting temperature (Tm) came out at 48.5 °C. Then “CGACGTGCAGGATGTGCTG+CAGCACATACGGCACGTCG ((((((((.(.((((((((+)))))))).).))))))))”, with 56.1 °C; and “CGACGTGCGCGATGTGCTG+CAGCACATGCAGCACGTCG ((((((((...((((((((+))))))))...))))))))”, with 55.8 °C. Regarding “CGACGTGCGACATGTGCTG+CAGCACATAGAGCACGTCG ((((((((...((((((((+))))))))...))))))))”, the melting temperature (Tm) was 56.3 °C.

For the substance “CGACGTGCCCGATGTGCTG+CAGCACATGTTGCACGTCG ((((((((...((((((((+))))))))...))))))))”, the midpoint of thermal melting (Tm) is 48.1 °C. Consider “CGACGTGCGGGATGTGCTG+CAGCACATTGAGCACGTCG ((((((((...((((((((+))))))))...))))))))”, for which the melting temperature (Tm) is 55.3 °C.

For the substance “CGACGTGCCACATGTGCTG+CAGCACATATTGCACGTCG ((((((((.(.((((((((+)))))))).).))))))))”, the Tm worked out at 47.4 °C. Regarding “CGACGTGCGAGATGTGCTG+CAGCACATCAAGCACGTCG ((((((((..(((((((((+)))))))))..))))))))”, the melting temperature (Tm) was found to be 58.6 °C. Turning to “CGACGTGCTAGATGTGCTG+CAGCACATTCTGCACGTCG ((((((((...((((((((+))))))))...))))))))”, the Tm is 52.2 °C. Consider “CGACGTGCCGGATGTGCTG+CAGCACATCTGGCACGTCG (((((((((.(((((((((+))))))))).)))))))))”, for which the midpoint of thermal melting (Tm) came out at 62.7 °C.

With “CGACGTGCAACATGTGCTG+CAGCACATATTGCACGTCG ((((((((((.((((((((+)))))))).))))))))))”, the melting temperature (Tm) was determined as 54.3 °C. Regarding “CGACGTGCCTGATGTGCTG+CAGCACATTACGCACGTCG ((((((((.(.((((((((+)))))))).).))))))))”, the Tm turned out to be 49 °C.

As for “CGACGTGCACTATGTGCTG+CAGCACATCGGGCACGTCG ((((((((.(.((((((((+)))))))).).))))))))”, the midpoint of thermal melting (Tm) is 51.1 °C.

In the case of “CGACGTGCGGCATGTGCTG+CAGCACATAAAGCACGTCG ((((((((...((((((((+))))))))...))))))))”, the Tm stood at 56 °C. As to “CGACGTGCCGCATGTGCTG+CAGCACATATAGCACGTCG ((((((((...((((((((+))))))))...))))))))”, the Tm was 48.2 °C. In the case of “CGACGTGCCAAATGTGCTG+CAGCACATTAGGCACGTCG (((((((((.(((((((((+))))))))).)))))))))”, the Tm was found to be 57.8 °C. “CGACGTGCCCGATGTGCTG+CAGCACATGATGCACGTCG ((((((((...((((((((+))))))))...))))))))”: the Tm worked out at 48.9 °C. For the substance “CGACGTGCTGAATGTGCTG+CAGCACATACAGCACGTCG ((((((((((.((((((((+)))))))).))))))))))”, the Tm was 58.6 °C. Then “CGACGTGCGTCATGTGCTG+CAGCACATCGCGCACGTCG (((((((((..((((((((+))))))))..)))))))))”, with 54.2 °C; and “CGACGTGCATAATGTGCTG+CAGCACATAGAGCACGTCG ((((((((...((((((((+))))))))...))))))))”, with 48.7 °C. For the substance “CGACGTGCGCGATGTGCTG+CAGCACATTTGGCACGTCG ((((((((...((((((((+))))))))...))))))))”, the Tm was 49.7 °C. For the substance “CGACGTGCATCATGTGCTG+CAGCACATCTAGCACGTCG ((((((((...((((((((+))))))))...))))))))”, the Tm turned out to be 47.3 °C. For “CGACGTGCCTGATGTGCTG+CAGCACATAGTGCACGTCG ((((((((...((((((((+))))))))...))))))))”, the melting temperature (Tm) stood at 46.5 °C.

Consider “CGACGTGCGCGATGTGCTG+CAGCACATTCCGCACGTCG (((((((((..((((((((+))))))))..)))))))))”, for which the Tm worked out at 54.9 °C. Consider “CGACGTGCATGATGTGCTG+CAGCACATAATGCACGTCG ((((((((((.((((((((+)))))))).))))))))))”, for which the Tm was 56 °C. Consider “CGACGTGCTTTATGTGCTG+CAGCACATCACGCACGTCG ((((((((.(.((((((((+)))))))).).))))))))”, for which the Tm stood at 47.9 °C. The result for “CGACGTGCAGGATGTGCTG+CAGCACATAACGCACGTCG ((((((((...((((((((+))))))))...))))))))” reads 50.8 °C. For the substance “CGACGTGCTGGATGTGCTG+CAGCACATTTAGCACGTCG (((((((((..((((((((+))))))))..)))))))))”, the Tm amounted to 54 °C.

Usually Tm stands for the temperature at the midpoint of the melting transition.
